According to patent US11703510B2, “Methods and products for in vivo enzyme profiling” (Massachusetts Institute of Technology, priority 2009, dated 2023):
Square brackets hold non-standard residues; d marks the D form. Ends that are not written are not given here. fluorescein = fluorescein label at the N-terminus

Experiment: Optimization of peptide reporters for LC/MS detection
Conditions: compared with other peptides of the same proteolytic-product group with longer or less hydrophilic caps; FIG. 8B
Text: A series of peptides (A1-A14) of different sequence were investigated to determine optimal sequence length and charge density that would enable facile detection via LC/MS. Three representative proteolytic products, sequences GGVVVLS (SEQ ID NO: 19), GGPVG (SEQ ID NO: 13), and GGdFPipR (SEQ ID NO: 17) were selected and appended with peptide caps of differing length and charge density (FIG. 8A). The sequences were then detected via LC/MS. […] A hydrophilic molecule is a molecule that can transiently hydrogen-bond with water and is, thus, soluble in water and, in some embodiments, in other polar solvents. Hydrophilicity of peptides can be modulated according to methods well known in the art. In some embodiments, removal of the fluorescein tag will increase the hydrophilicity of the peptides reported in this disclosure. In some embodiments, modification of the sequences to contain positively charged residues (Histidine, Lysine, and Arginine) and/or negatively charged residues (glutamic acid and aspartic acid) will increase the hydrophilicity. […] Of the tested cap sequences Fl-dR-dS-dR (SEQ ID NO: 20) and Fl-dR-G-dS-dR (SEQ ID NO: 21) were determined to be advantageous. Accordingly, for non-fluorescent detection, the cap sequences dR-dS-dR (SEQ ID NO: 35) and dR-G-dS-dR (SEQ ID NO: 36) were determined to be advantageous. […]

Row | Substance | detection via LC/MS (normalized relative intensities of the peptide reporters)
1 | Fl-dR-G-dS-dR (fluorescein-[dR]G[dS][dR]) | advantageous
2 | Fl-dR-dS-dR (fluorescein-[dR]-[dS]-[dR]) | advantageous
